According to article PMC4874493:

Key:
[1] = biological target: APOBEC3A E72A/C171A (human, UniProt P31941 1-199, E72A;C171A); assay: fluorescence anisotropy
[2] = biological target: APOBEC3A E72Q (human, UniProt P31941 1-199, E72Q); assay: fluorescence anisotropy
Sequence of APOBEC3A E72Q (P31941 whole entry E72Q): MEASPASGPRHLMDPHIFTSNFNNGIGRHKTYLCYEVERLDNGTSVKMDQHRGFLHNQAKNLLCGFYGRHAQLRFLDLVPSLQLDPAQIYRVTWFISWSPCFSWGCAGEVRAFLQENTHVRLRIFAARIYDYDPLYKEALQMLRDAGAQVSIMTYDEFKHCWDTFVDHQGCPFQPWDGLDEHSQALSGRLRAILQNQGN

Sequence of APOBEC3A E72A/C171A (P31941 whole entry E72A/C171A): as the sequence (P31941 whole entry E72Q) above, with Q72A, C171A counted along it

B1: polyT (TTT) (ssDNA)
DNA: TTTTTTTTTTTTTTT
Kd [1]: 502 ± 27 nM | Kd [2]: 205 ± 20 nM
